± gives the half width of the 95% confidence interval.
Legend:
[1] = folding stability dG unfold from trypsin proteolysis; higher = more stable
How it was run: (§1)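 Digests were run with trypsin and chymotrypsin at 11 concentrations in threefold dilutions, plus a no-protease condition, on designed mini-proteins in a PA-tagged cDNA display construct. The mini-proteins were under 80 residues, had no cysteine, and were kept only when AlphaFold2 dimer inter-PAE was above 15. After sequencing, Bayesian fitting of the counts gave K50, from which unfolding free energy was derived against a sequence-predicted unfolded-state K50 and a shared folded-state K50, per protease or combined.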

[2] = folding stability dG unfold from chymotrypsin proteolysis; higher = more stable
How it was run: as §1

[3] = folding stability dG unfold (combined trypsin and chymotrypsin); higher = more stable
How it was run: as §1

In the case of “SAGGSAGGGSLTVTTDPDGTQTVTLPDGRTFTFTNPYGVTRLVRARPDDGFEVWLQVDGKWYPLSAGGSAGG [r6_903_TrMRF]”, the “folding stability dG unfold” value [1] is reported as 0.96 ± 0.022 kcal/mol, the “folding stability dG unfold” value [2] is reported as 1.88 ± 0.053 kcal/mol and the “folding stability dG unfold” value [3] is reported as 1.57 ± 0.031 kcal/mol.

For “SAPFQIKEITVNPKDGEAEINFPLENLPPPWMIHIFDKDKGKTQWIPPGGEIEIRAPEGPVKIMIFWRDSAG [r14_134_TrROS]”, the “folding stability dG unfold” value [1] was 1.27 ± 0.12 kcal/mol, the “folding stability dG unfold” value [2] was 0.981 ± 0.45 kcal/mol and the “folding stability dG unfold” value [3] was 1.16 ± 0.25 kcal/mol.

For “SAGGSAGGSAGKPKIKIEEIIEIEVITKKKIPETGKEKETPEKLYIIKVKVENIPPNLKVSAGGSAGGSAGG [r17_530_TrMRF]”, the “folding stability dG unfold” value [1] was 0.466 ± 0.11 kcal/mol, the “folding stability dG unfold” value [2] was 2.11 ± 0.06 kcal/mol and the “folding stability dG unfold” value [3] was 1.38 ± 0.25 kcal/mol.

With “SAGGPPYYMIKIRYPDNGKEYEIPPGIKVHRDPNNEVYIMFRSPAAADDLVDEIAPTNGLRVEIEPFSAGGS [r8_131_TrROS]” the “folding stability dG unfold” value [1] was 0.945 ± 0.23 kcal/mol, the “folding stability dG unfold” value [2] was 1.07 ± 0.24 kcal/mol and the “folding stability dG unfold” value [3] was 0.915 ± 0.3 kcal/mol.

With “SVEEFRELLPDAVIEAEPLSPDRLLIRLYVPEDPEKLNPLAERVRELAEEIERETGLPVLIEIIPVPPESSA [r9_1099_TrMRF]” the “folding stability dG unfold” value [1] was 1.53 ± 0.033 kcal/mol, the “folding stability dG unfold” value [2] was 1.27 ± 0.014 kcal/mol and the “folding stability dG unfold” value [3] was 1.41 ± 0.028 kcal/mol.

With “SAGGSAGGSAMTPVTTTQTISFPGSEEEARAEAERIREELEAKGLTVSFEFLPGGTLKITVASAGGSAGGSA [r18_262_JUSTAS]” the “folding stability dG unfold” value [1] was 3.18 ± 0.064 kcal/mol, the “folding stability dG unfold” value [2] was 2.398 ± 0.021 kcal/mol and the “folding stability dG unfold” value [3] was 2.74 ± 0.038 kcal/mol.

In the case of “SAGGMLKFTDPKTGNEYTVTEYDPNTGVYLVTTTYPDGTTTTREFPGSLEDIVKHLEEEGYPTTVVGSAGGS [r16_748_JUSTAS]”, the “folding stability dG unfold” value [1] is reported as 2.83 ± 0.12 kcal/mol, the “folding stability dG unfold” value [2] is reported as 3.38 ± 0.1 kcal/mol and the “folding stability dG unfold” value [3] is reported as 3.24 ± 0.069 kcal/mol.

With “SAGGSMRLVERTFVPVKTFTFLSTFNLIQPPGVPVPTFTTLTVVFTPVFTRLVEVVTEPPGRVVEVLLSAGG [r13_148_JUSTAS]” the “folding stability dG unfold” value [1] was 3.73 ± 0.15 kcal/mol, the “folding stability dG unfold” value [2] was 4.33 ± 0.13 kcal/mol and the “folding stability dG unfold” value [3] was 4.06 ± 0.21 kcal/mol.

With “SAGGSAGGSAGKKKIVFLVEDPEEALKTLTFPKDANIEIEKIEVKPLPNGLYEVVIYLKNSAGGSAGGSAGG [r11_150_TrMRF]” the “folding stability dG unfold” value [1] was 2.76 ± 0.081 kcal/mol, the “folding stability dG unfold” value [2] was 4.59 ± 0.1 kcal/mol and the “folding stability dG unfold” value [3] was 4.29 ± 0.24 kcal/mol.

For “SAGGSAKIKIITENGEELEIEVETKEELEKAVEALKKLLPPDAEIEVEVVEKDGKLIVKIKVKKKPSAGGSA [r15_80_TrROS_Hall]”, the “folding stability dG unfold” value [1] was 1.54 ± 0.13 kcal/mol, the “folding stability dG unfold” value [2] was 2.17 ± 0.12 kcal/mol and the “folding stability dG unfold” value [3] was 1.85 ± 0.31 kcal/mol.

In the case of “SAGGLYVFDKNGKIISKVPKVEPIPIVITFPDGEKVLFEKYPGLNIIVVSYEGENPEKVKEAVKKILSSAGG [r13_701_TrMRF]”, the “folding stability dG unfold” value [1] is reported as 0.835 ± 0.075 kcal/mol, the “folding stability dG unfold” value [2] is reported as 1.06 ± 0.14 kcal/mol and the “folding stability dG unfold” value [3] is reported as 0.977 ± 0.13 kcal/mol.

In the case of “SAGGSAGGSALVVRLENGKEILIEGMSEEEIKELLDKLLPPEEKKNLKIVKVEVFEVEKPESAGGSAGGSAG [r3_340_TrROS_Hall]”, the “folding stability dG unfold” value [1] is reported as 1.62 ± 0.1 kcal/mol, the “folding stability dG unfold” value [2] is reported as 1.14 ± 0.096 kcal/mol and the “folding stability dG unfold” value [3] is reported as 1.29 ± 0.18 kcal/mol.

In the case of “SWMLRIRNPDDGKTREIKLPNMPPTVQKDGWISITNPQFLNQLLDALPPDYKIDEVEFMPGGMHTMKVKPSA [r9_997_TrROS]”, the “folding stability dG unfold” value [1] is reported as 0.0269 ± 0.17 kcal/mol, the “folding stability dG unfold” value [2] is reported as -0.067 ± 0.32 kcal/mol and the “folding stability dG unfold” value [3] is reported as 0.019 ± 0.12 kcal/mol.

In the case of “SAKKVKPIAKLTITDENGNTYEITVTVKEVDGKLVVEAEVYNKDGELVARVTAVFDNGKLVAVSIELLPSAG [r14_828_TrROS_Hall]”, the “folding stability dG unfold” value [1] is reported as 2.11 ± 0.13 kcal/mol, the “folding stability dG unfold” value [2] is reported as 3.03 ± 0.072 kcal/mol and the “folding stability dG unfold” value [3] is reported as 2.8 ± 0.17 kcal/mol.

For “SAGGSAEVTITVEYDEETGVLKITITVPPGVTVEEIAEALKKLVPDVKVEKNEDGTITVYVKLPEKSAGGSA [r15_1057_TrROS_Hall]”, the “folding stability dG unfold” value [1] was 2.44 ± 0.16 kcal/mol, the “folding stability dG unfold” value [2] was 4.36 ± 0.16 kcal/mol and the “folding stability dG unfold” value [3] was 4.07 ± 0.33 kcal/mol.

With “SAGGMIKSEKLIKSPENETIKVETTIILDENGNPKSVKKKITVYKNGKPVKEMEISSIGNEIEIKKPSAGGS [r16_35_JUSTAS]” the “folding stability dG unfold” value [1] was -0.308 ± 0.65 kcal/mol, the “folding stability dG unfold” value [2] was 1.48 ± 0.15 kcal/mol and the “folding stability dG unfold” value [3] was 1.14 ± 0.21 kcal/mol.

For “SAGGSAGGSLIPADRTYKVTVTVEGDKVILTLTDPTSSVTYTLTLDIGPEKVPAGSTLTYTGSSAGGSAGGS [r12_525_JUSTAS]”, the “folding stability dG unfold” value [1] was 1.22 ± 0.075 kcal/mol, the “folding stability dG unfold” value [2] was 1.7 ± 0.19 kcal/mol and the “folding stability dG unfold” value [3] was 1.56 ± 0.25 kcal/mol.

For “SAGGSAGGSAKKITIYLPNAEVVEVEYDEETDVITIRVKNEDGSEYEFRFYPDGSVEIRPVSAGGSAGGSAG [r3_348_TrROS_Hall]”, the “folding stability dG unfold” value [1] was 2.95 ± 0.16 kcal/mol, the “folding stability dG unfold” value [2] was 3.65 ± 0.15 kcal/mol and the “folding stability dG unfold” value [3] was 3.4 ± 0.14 kcal/mol.

For “SAGGKTKTYTFVLEDPVKKGIPVLAKVTVTYEPDENGNEVAPANVVVYYPDGKPEVLKVDVSNITGTGSAGG [r13_787_TrMRF]”, the “folding stability dG unfold” value [1] was 0.123 ± 0.13 kcal/mol, the “folding stability dG unfold” value [2] was 1.11 ± 0.053 kcal/mol and the “folding stability dG unfold” value [3] was 0.737 ± 0.06 kcal/mol.

In the case of “SAGGSAGGEPPPVVITVTVRNPATGETVKATAVLNPDGTLQVTVTRPDGSKQTFTATISAEALKSAGGSAGG [r6_588_TrROS_Hall]”, the “folding stability dG unfold” value [1] is reported as 2.76 ± 0.33 kcal/mol, the “folding stability dG unfold” value [2] is reported as 3.86 ± 0.15 kcal/mol and the “folding stability dG unfold” value [3] is reported as 3.63 ± 0.34 kcal/mol.
